The target of the first assay is HERC2 (endogenous, HEK293 cells) [human (endogenous in HEK293)]. The assay is described as follows: co-immunoprecipitation (FLAG-IP) and Western blotting, band quantification. As to conditions: mean ± SE from five repeated experiments; parent: 1; read off a plot.
For the substance “FLAG-tagged human LRRK2 (wild type) mutant R1398L [human] / HERC2 (endogenous, HEK293 cells) [human (endogenous in HEK293)] chain 1 R1398L”, the ratio to parent was 1.4. As to “FLAG-tagged human LRRK2 (wild type) mutant R1441G [human] / HERC2 (endogenous, HEK293 cells) [human (endogenous in HEK293)] chain 1 R1441G”, the ratio to parent came to 2.5. “FLAG-tagged human LRRK2 (wild type) mutant T1348N [human] / HERC2 (endogenous, HEK293 cells) [human (endogenous in HEK293)] chain 1 T1348N”: the ratio to parent turned out to be 3.4.

A further assay addresses NEURL4 (endogenous, HEK293 cells) [human (endogenous in HEK293)]. Described as above. As to conditions: mean ± SE from five repeated experiments; parent: 1; read off a plot.
In the case of “FLAG-tagged human LRRK2 (wild type) mutant R1398L [human] / NEURL4 (endogenous, HEK293 cells) [human (endogenous in HEK293)] chain 1 R1398L”, the ratio to parent amounted to 1.8. Same read-out and setting: then “FLAG-tagged human LRRK2 (wild type) mutant R1441G [human] / NEURL4 (endogenous, HEK293 cells) [human (endogenous in HEK293)] chain 1 R1441G”, with 3.2.

Take “FLAG-tagged human LRRK2 (wild type) mutant T1348N [human] / NEURL4 (endogenous, HEK293 cells) [human (endogenous in HEK293)] chain 1 T1348N”: the ratio to parent worked out at 4.3.

Values taken from paper PMC4565672.
